Where “and” joins values, the source holds several entries; their conditions need not be identical. Equal entries are not always repeated. Where two headings read alike, the source gives them in different places.
Key:
[1] = molecular target: class A (P/Q) calcium channels (Oryctolagus cuniculus, UniProt P27884); assay: Two-electrode voltage clamp of barium currents in Xenopus oocytes expressing class A alpha-1 subunits; conditions: 4 mM barium
Protocol: In these experiments, barium currents (4 mM barium, no added calcium, in medium) through the calcium channels were measured for technical reasons, in accordance with methods known in the art.
The cRNA for the alpha-1 subunit described in Mori et al. (1991) was expressed in Xenopus oocytes by standard methods (Goldin, 1992). For expression, cRNA for the alpha-1 subunit was co-injected with cRNA for the rabbit alpha2 and delta (Ellis et al. 1988) and human beta (Williams et al. 1992) subunits in equimolar ratios. Approximately 50 nL was injected per oocyte, with a total cRNA concentration of 0.8 μg/μL.
Currents were recorded, by two-electrode voltage clamp using a solution of 4 mM barium chloride, 38 mM potassium chloride, 36 mM tetraethylammonium chloride, 5 mM 4-aminopyridine, 0.4 mM niflumic acid, 5 mM HEPES (pH 7.5), and 0.1 mg/mL bovine serum albumin. Data were sampled at 5 kHz and filtered at 1 kHz utilizing a OC-725B voltage-clamp amplifier. (Warner Instruments) interfaced to PCLAMP software (Axon Instruments, Foster City, Calif.) for acquisition and analysis. Leak and capacitance currents were subtracted on-line using a P/4 protocol. Voltage pulses to 0 mV from a holding potential of −80 mV were used to elicit currents every 10 s.

class E calcium channels = class E calcium channels (Homo sapiens, UniProt Q15878); assay: Class E channel blocking, summary statements (two separate measures of channel blocking activity); type: cell-based; conditions: no method given
[2] = molecular target: T1, class E calcium channels (192C cells) (Homo sapiens, UniProt Q15878); type: cell-based
T1 construct: expressed in transfected cells; host or cells: HEK 293 (192C cells)

DBA/2 mice = conditions: mouse, in vivo
[3] = molecular target: L-type calcium channels of GH3 cells (rat); assay: cell-based or functional assay
[4] = molecular target: T2, N-type calcium channels (IMR-32 neuroblastoma cells) (Homo sapiens, UniProt Q00975); assay: cell-based
T2 construct: host or cells: IMR-32 (differentiated)

[5] = molecular target: class B voltage-gated calcium channel (human alpha-1B subunit) stably expressed in S3 cells (HEK 293) (human) (UniProt Q00975); assay: cell-based or functional assay

Sequence of class A (P/Q) calcium channels (P27884 whole entry): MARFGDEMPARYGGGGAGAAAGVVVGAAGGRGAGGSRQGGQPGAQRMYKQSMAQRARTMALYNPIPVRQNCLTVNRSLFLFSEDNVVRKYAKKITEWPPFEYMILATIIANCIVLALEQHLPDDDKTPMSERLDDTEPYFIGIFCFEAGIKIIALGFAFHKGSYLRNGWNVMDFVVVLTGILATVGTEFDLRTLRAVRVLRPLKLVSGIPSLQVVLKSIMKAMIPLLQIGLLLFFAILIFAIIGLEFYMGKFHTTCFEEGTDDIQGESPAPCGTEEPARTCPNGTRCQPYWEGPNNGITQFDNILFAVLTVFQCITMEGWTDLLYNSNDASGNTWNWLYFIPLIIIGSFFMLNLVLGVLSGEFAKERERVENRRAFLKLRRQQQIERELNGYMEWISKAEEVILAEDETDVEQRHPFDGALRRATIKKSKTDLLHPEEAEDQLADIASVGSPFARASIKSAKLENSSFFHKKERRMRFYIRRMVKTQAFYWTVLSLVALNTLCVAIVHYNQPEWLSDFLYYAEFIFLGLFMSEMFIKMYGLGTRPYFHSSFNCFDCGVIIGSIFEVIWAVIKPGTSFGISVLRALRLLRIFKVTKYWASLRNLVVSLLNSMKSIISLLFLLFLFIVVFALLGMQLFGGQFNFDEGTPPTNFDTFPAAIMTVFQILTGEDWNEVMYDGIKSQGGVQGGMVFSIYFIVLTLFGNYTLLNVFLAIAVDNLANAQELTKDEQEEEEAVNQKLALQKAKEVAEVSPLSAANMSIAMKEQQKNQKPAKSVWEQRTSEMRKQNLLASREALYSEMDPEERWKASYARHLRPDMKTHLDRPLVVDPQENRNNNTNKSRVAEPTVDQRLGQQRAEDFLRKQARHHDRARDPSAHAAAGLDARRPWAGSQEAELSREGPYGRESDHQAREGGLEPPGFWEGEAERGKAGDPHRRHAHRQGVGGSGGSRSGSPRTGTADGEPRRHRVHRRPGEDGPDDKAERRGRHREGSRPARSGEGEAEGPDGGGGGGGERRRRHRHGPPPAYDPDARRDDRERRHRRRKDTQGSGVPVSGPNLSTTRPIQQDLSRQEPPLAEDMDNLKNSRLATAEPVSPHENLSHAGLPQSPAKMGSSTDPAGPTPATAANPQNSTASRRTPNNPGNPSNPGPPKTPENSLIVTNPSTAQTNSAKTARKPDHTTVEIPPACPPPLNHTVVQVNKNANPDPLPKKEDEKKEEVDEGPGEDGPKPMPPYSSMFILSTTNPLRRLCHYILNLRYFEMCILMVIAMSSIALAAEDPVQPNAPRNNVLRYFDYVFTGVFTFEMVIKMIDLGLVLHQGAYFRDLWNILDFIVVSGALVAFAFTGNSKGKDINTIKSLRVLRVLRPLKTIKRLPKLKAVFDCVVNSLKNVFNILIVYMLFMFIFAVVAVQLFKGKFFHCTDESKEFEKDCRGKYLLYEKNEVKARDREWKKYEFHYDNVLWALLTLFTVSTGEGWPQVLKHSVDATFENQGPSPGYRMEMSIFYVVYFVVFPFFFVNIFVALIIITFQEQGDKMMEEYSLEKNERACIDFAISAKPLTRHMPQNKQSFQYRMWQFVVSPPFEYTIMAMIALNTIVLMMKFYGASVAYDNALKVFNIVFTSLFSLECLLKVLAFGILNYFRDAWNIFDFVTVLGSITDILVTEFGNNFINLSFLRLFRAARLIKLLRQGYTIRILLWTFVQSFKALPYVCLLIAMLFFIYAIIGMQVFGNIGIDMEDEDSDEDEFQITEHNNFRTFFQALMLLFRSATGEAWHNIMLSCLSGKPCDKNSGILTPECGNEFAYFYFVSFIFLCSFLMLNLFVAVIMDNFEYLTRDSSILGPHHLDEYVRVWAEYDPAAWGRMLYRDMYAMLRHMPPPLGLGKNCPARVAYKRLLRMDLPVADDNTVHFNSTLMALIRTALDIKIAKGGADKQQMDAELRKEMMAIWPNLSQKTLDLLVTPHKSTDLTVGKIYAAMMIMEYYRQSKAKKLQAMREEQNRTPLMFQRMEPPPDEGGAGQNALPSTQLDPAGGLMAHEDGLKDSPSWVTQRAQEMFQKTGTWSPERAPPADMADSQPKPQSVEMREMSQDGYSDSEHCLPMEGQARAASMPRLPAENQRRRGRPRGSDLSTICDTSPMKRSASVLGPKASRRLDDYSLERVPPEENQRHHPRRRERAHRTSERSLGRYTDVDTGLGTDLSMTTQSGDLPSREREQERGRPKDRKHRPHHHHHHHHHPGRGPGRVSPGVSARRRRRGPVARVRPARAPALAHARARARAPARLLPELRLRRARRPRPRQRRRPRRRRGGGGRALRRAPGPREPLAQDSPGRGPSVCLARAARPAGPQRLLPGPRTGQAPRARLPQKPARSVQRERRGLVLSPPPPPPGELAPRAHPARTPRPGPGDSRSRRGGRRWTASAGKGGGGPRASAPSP
Sequence of class A (P/Q) calcium channels (P13806 27-960 partner limits assumed): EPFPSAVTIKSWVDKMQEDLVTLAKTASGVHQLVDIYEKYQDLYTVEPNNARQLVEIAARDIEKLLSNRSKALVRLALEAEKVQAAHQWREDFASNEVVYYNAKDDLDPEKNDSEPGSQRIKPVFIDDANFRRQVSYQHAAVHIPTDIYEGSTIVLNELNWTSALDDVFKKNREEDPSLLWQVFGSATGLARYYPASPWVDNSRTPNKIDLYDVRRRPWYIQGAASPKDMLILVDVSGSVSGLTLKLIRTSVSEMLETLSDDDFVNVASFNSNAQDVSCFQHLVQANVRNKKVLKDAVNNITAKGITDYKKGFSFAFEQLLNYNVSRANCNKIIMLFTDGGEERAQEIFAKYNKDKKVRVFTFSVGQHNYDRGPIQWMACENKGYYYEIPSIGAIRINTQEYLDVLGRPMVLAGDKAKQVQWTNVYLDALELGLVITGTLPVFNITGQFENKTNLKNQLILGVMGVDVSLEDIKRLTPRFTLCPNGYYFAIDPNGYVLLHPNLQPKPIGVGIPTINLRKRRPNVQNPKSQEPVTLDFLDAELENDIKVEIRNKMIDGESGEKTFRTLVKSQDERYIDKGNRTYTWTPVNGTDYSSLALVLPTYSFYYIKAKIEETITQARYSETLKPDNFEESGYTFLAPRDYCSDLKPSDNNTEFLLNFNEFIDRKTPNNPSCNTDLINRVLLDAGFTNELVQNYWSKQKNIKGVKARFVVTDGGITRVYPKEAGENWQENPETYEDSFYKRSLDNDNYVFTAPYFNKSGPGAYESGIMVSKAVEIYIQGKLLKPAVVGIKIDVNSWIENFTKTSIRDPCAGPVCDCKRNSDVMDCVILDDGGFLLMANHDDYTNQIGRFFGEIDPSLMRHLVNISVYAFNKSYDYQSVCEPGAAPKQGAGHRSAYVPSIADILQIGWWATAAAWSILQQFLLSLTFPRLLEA
Sequence of class A (P/Q) calcium channels (P13806 961-1106 partner limits assumed): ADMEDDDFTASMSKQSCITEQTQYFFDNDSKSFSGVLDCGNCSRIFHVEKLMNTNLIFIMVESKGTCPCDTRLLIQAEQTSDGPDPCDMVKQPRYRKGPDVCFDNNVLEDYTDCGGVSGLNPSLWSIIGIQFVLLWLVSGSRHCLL
Sequence of class A (P/Q) calcium channels (Q02641 whole entry partner): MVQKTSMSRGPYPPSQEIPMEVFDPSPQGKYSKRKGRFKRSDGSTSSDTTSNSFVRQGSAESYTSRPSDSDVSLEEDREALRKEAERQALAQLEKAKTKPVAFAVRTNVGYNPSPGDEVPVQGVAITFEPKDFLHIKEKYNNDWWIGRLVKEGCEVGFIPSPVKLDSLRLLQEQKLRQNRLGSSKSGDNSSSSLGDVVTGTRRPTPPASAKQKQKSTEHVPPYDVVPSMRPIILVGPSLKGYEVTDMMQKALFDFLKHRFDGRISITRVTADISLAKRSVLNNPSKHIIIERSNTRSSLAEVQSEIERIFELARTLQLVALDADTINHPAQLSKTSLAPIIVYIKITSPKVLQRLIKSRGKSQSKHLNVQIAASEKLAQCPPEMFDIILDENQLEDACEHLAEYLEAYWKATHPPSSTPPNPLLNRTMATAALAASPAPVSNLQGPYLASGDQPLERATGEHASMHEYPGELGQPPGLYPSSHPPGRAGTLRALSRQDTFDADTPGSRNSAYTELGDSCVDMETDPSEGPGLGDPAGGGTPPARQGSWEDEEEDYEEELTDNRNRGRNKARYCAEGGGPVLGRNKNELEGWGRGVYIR

[Cd] [cadmium]
effect on class A (P/Q) barium current ([1]; concentration not given): completely blocked

hanatoxin (ECRYLFGGCKTTSDCCKHEGCKFRDKTCAWDFTFS; listed as Grammostola spatulata)
class E calcium channel antagonist activity (class E calcium channels): neither of these peptides exhibits class E calcium channel antagonist activity

SNX-629: synthetic truncated HG-1 peptide corresponding to HG 1 (7-41), SEQ ID NO: 15 (CRYMFGGCSVNDDCCPRLGCHSLFSYCAWDLTFSD)
concentration inhibiting class E channels relative to that of HG-1 in the same assay [2]: less than 20 times
ED50 for the anticonvulsant effect (DBA/2 mice): about 5 μg/mouse

omega-Aga-IIIA (from UniProt P33034 1-76) (peptide)
apparent IC50, depolarization evoked calcium signal at 60 seconds, INDO-1, GH3 cells (partial block) [3]: 1.5 nM

CCCC[C@@H]1NC(=O)[C@H](CC(C)C)NC(=O)[C@H](CCCNC(=N)N)NC(=O)[C@H](CO)NC(=O)[C@@H]2CSSC[C@@H]3NC(=O)[C@H](CO)NC(=O)CNC(=O)[C@H]([C@@H](C)O)NC(=O)[C@H](CSSC[C@H](N)C(=O)N[C@@H](CCCCN)C(=O)NCC(=O)N[C@@H](CCCCN)C(=O)NCC(=O)N[C@@H](C)C(=O)N[C@@H](CCCCN)C(=O)N2)NC(=O)[C@H](CSSC[C@@H](C(N)=O)NC(=O)[C@H](CCCCN)NC(=O)CNC(=O)[C@H](CO)NC(=O)[C@H](CCCNC(=N)N)NC3=O)NC(=O)[C@H](CC(=O)O)NC(=O)[C@H](Cc2ccc(O)cc2)NC1=O [SNX-194]
IC50 [4]: 1 nM
inhibition of remaining transient depolarization evoked increase in internal calcium [4]: nearly completely inhibited

HG-1 peptide
IC50, block of peak inward calcium current, whole cell patch clamp of S-3 cells [5]: 800 nM

B1: Aga-IIIA (peptide)
peptide: SCIDIGGDCDGEKDDCQCCRRNGYCSCYSLFGYLKSGCKCVVGTSAEFQGICRRKARQCYNSDPDKCESHNKPKRR
IC50 ([4]; read-out: apparent IC50 for inhibition of depolarization evoked increase in internal calcium): 0.1 nM and ~0.1 nM
effect on class A (P/Q) barium current ([1]; 60 nM): partially blocked
